Results as given in the supplement of paper PMC7877785.
± gives the uncertainty stated by the source.

Assay: self-splicing fitness, log relative to wild type (ln ratio); higher = more splicing; Tetrahymena group I intron in knt gene, E. coli kanamycin selection, DiMSum; sequences stand for … in CUCUCU…GGAGGGAAAAGUUAUCAGGCAUGCACCUGGUAGCUAGUCUUUAAACCAAUAGAUUGCAUCGGUUUAAAAGGCAAGACCGUCAAAUUGCGGGAAAGGGGUCAACAGCCGUUCAGUACCAAGUCUCAGGGGAAACUUUGAGAUGGCCUUGCAAAGGGUAUGGUAAUAAGCUGACGGACAUGGUCCUAACCACGCAGCCAAGUCCUAAGUCAACAGAUCUUCUGUUGAUAUGGAUGCAGUUCACAGACUAAAUGUCGGUCGGGGAAGAUGUAUUCUUCUCAUAAGAUAUAGUCGGACCUCUCCUUAAUGGGAGCUAGCGGAUGAAGUGAUGCAACACUGGAGCCGCUGGGAACUAAUUUGUAUGCGAAAGUAUAUUGAUUAGUUUUGGAGUACUCGUGGUCG
In short: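 The eight P1ex-region nucleotides of an intron in the knt kanamycin-resistance gene on pET-22b(+) were all randomised and the library put into E. coli BL21(DE3). Six replicate transformations were grown overnight at 37°C or 30°C on LB agar with or without 25 μg/mL kanamycin, together with 100 μg/mL carbenicillin, 50 μM IPTG and 0.2% rhamnose. Colonies were pooled and amplicon-sequenced on an Illumina HiSeq 2500. Fitness from DiMSum is the error-weighted combination of wild-type-normalised replicate fold changes, kanamycin over none.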

Row | Sequence | self-splicing fitness (ln) (37 °C) | self-splicing fitness (ln) (30 °C)
1 | CGUUAGCAAUAUUACGUUCC | -1.47 ± 0.45 | –
2 | CUAAAGCAAUAUUACGAAGU | -2.57 ± 0.28 | -4.21 ± 0.26
3 | CUAAAGCAAUAUUACGACAA | -1.2 ± 0.19 | -2.42 ± 0.15
4 | CUAAAGCAAUAUUACGACGC | -1.39 ± 0.45 | –
5 | CUAAAGCAAUAUUACGAGCA | -1.08 ± 0.2 | -3.41 ± 0.25
6 | CUAAAGCAAUAUUACGAGUU | -1.85 ± 0.26 | -2.84 ± 0.32
7 | CUAAAGCAAUAUUACGCGAA | -2.63 ± 0.36 | -3.71 ± 0.25
8 | CUAAAGCAAUAUUACGCGCU | -2.06 ± 0.23 | -3.15 ± 0.16
9 | CUAAAGCAAUAUUACGCGGC | -1.28 ± 0.17 | -1.21 ± 0.13
10 | CUAAAGCAAUAUUACGCUCA | -2.39 ± 0.19 | -3.67 ± 0.25
11 | CUAAAGCAAUAUUACGGAAA | -2.44 ± 0.35 | -4.24 ± 0.37
12 | CUAAAGCAAUAUUACGGACU | -1.9 ± 0.27 | -3.93 ± 0.25
13 | CUAAAGCAAUAUUACGGAGC | -1.2 ± 0.29 | -3.27 ± 0.31
14 | CUAAAGCAAUAUUACGGAUC | – | -2.3 ± 0.21
15 | CUAAAGCAAUAUUACGGCUU | -2.44 ± 0.29 | -3.8 ± 0.21
16 | CUAAAGCAAUAUUACGGGAG | 0.188 ± 0.077 | -0.542 ± 0.056
17 | CUAAAGCAAUAUUACGGUUC | -2.68 ± 0.18 | -4.09 ± 0.2
18 | CUAAAGCAAUAUUACGUAGU | -2.59 ± 0.17 | -4.53 ± 0.2
19 | CUAAAGCAAUAUUACGUGUU | -2.91 ± 0.16 | -4.79 ± 0.19
20 | CUAAAGCAAUAUUACGUUAG | -1.77 ± 0.1 | -2.33 ± 0.093
21 | CUAAAGCAAUAUUACGUUAU | -3.34 ± 0.26 | -4.11 ± 0.21
22 | CUAAAGCAAUAUUACGUUUG | -0.672 ± 0.092 | -1.47 ± 0.075
23 | CUACAGCAAUAUUACGAAAC | -2.37 ± 0.39 | -3.35 ± 0.26
24 | CUACAGCAAUAUUACGAACG | 0.6 ± 0.14 | 0.241 ± 0.11

Row | Sequence | self-splicing fitness (ln) (37 °C) | self-splicing fitness (ln) (30 °C)
25 | CUACAGCAAUAUUACGACAU | -2.67 ± 0.037 | -3.878 ± 0.021
26 | CUACAGCAAUAUUACGACCA | -2.31 ± 0.35 | -2.7 ± 0.3
27 | CUACAGCAAUAUUACGAUUC | -1.6 ± 0.24 | -4.31 ± 0.43
28 | CUACAGCAAUAUUACGCCCU | -2.85 ± 0.29 | -3.11 ± 0.2
29 | CUACAGCAAUAUUACGCCUC | -0.901 ± 0.34 | -3.9 ± 0.3
30 | CUACAGCAAUAUUACGCGGA | -3 ± 0.27 | -3.06 ± 0.25
31 | CUACAGCAAUAUUACGCUCU | -2.74 ± 0.29 | -4.15 ± 0.25
32 | CUACAGCAAUAUUACGGAAG | -0.751 ± 0.11 | -1.46 ± 0.085
33 | CUACAGCAAUAUUACGGAGA | -2.27 ± 0.27 | -4.39 ± 0.42
34 | CUACAGCAAUAUUACGGGAC | -2.06 ± 0.15 | -2.98 ± 0.14
35 | CUACAGCAAUAUUACGGGCA | -2.21 ± 0.21 | -2.76 ± 0.18
36 | CUACAGCAAUAUUACGUAAU | -2.84 ± 0.18 | -3.8 ± 0.19
37 | CUACAGCAAUAUUACGUACU | -1.05 ± 0.15 | -3.15 ± 0.14
38 | CUACAGCAAUAUUACGUGAC | -0.853 ± 0.14 | -1.02 ± 0.09
39 | CUACAGCAAUAUUACGUGCG | -0.715 ± 0.089 | -1.75 ± 0.081
40 | CUAGAGCAAUAUUACGACAA | -1.84 ± 0.34 | -2.53 ± 0.32
41 | CUAGAGCAAUAUUACGAUGC | -1.94 ± 0.43 | -2.31 ± 0.42
42 | CUAGAGCAAUAUUACGCAAG | -0.42 ± 0.11 | -1.8 ± 0.096
43 | CUAGAGCAAUAUUACGCACG | -0.23 ± 0.24 | -0.957 ± 0.15
44 | CUAGAGCAAUAUUACGCAUC | -2.65 ± 0.45 | -3.92 ± 0.29
45 | CUAGAGCAAUAUUACGCCCG | 0.187 ± 0.18 | -0.259 ± 0.2
46 | CUAGAGCAAUAUUACGCGAC | 0.181 ± 0.16 | -0.657 ± 0.13
47 | CUAGAGCAAUAUUACGCGUG | -0.476 ± 0.12 | -0.446 ± 0.1
48 | CUAGAGCAAUAUUACGGAGG | -1.98 ± 0.16 | -1.49 ± 0.13
